Reference: the RNAGym collection of RNA variant scans (doi:10.1073/pnas.2313332121)
Fewer inactive variants are shown than the library holds.

B1: TPR 5TU (parent)
chain: GGAUCUUCUCGAUCUAACAAAAAAGACAAAUCUGCCACAAAGCUUGAGAGCAUCUUCGGAUGCAGAGGCGGCAGCCUUCGGUGGCGCGAUAGCGCCAACGUUCUCAACUAUGACACGCAAAACGCGUGCUCCGUUGAAUGGAGUUUAUCAUG

Variants of: B1
Experiment: polymerase ribozyme fitness, log enrichment relative to wild type (log ratio); higher = more active; in vitro selection for triplet polymerase activity
How it was run: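 Input and output libraries were sequenced on Illumina after a single in vitro selection round, run in triplicate on PCR-built, transcribed mutant libraries of each subunit of a heterodimeric triplet polymerase ribozyme. Selection annealed libraries to a biotinylated primer, the partner subunit and triplets, incubated them frozen at −7 °C, then gel-excised extended constructs for streptavidin-bead capture and RT-PCR. Genotypes with ≥10 input reads and ≥1 read per output were kept. Fitness is the logarithm, taken in base 2, of genotype enrichment divided by wild-type enrichment, using inverse-variance-weighted replicate averages.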

Compared with GGAUCUUCUCGAUCUAACAAAAAAGACAAAUCUGCCACAAAGCUUGAGAGCAUCUUCGCUUGCAGAGGCGGCAGCCUUCGGUGGCGCGAUAGCGCCAACGUUCUCAACUAUGACACGCAAAACGCGUGCUCCGUUGAAUGGAGUUUAUCAUG, GGAUCUUCUCGAUCUAACAAAAAAGACAAAUCUGCCACAAAGCUUGAGAGCAUCUUCGCAUGCAGAGGCGGCAGCCUUCGGUGGCGCGAUAGCGCCAACGUUCUCAACUAUGACACGCUAAACGCGUGCUCCGUUGAAUGGAGUUUAUUAUG is lower in “polymerase ribozyme fitness (log ratio)” value: 0.153 for the first, -0.775 for the second.

Going from GGAUCUUCUCGAUCUAACAAAAAAGACAAAUCUGCCACAAAGCUUGAGAGCAUCUUCGCAUGCAGAGGUGGCAGCCUUCGGUGGCGCGAUAGGGCCAACAUUCUCAACUAUGACACGCAAAACUCGUGCUCCGUUGAAUGGAGUUUAUCAUG to GGAUCUUCUCGAUCUAACAAAAAAGACAAAUCUGCCACAAAGCUUGAGAGCAUCUUCGCAUGCAGAGGCGGCGGCCUUCGGUGGCUCGAUAGCGCCAACGUUCUCAACUAUGACACGCAAAACGCGUGCUCCGUUGAAUGGAGUUUAUCAUG, the “polymerase ribozyme fitness (log ratio)” value rises from no more than -4.2 to -2.26.

Compared with GGAUCUUCUCGAUCUAACAAAAAAGACAAAUCUGCCACAAAGCUUGAGAGCAUCUUCGAAUGCAGAGGCGGCAGCCUUCGGUGGCGCGAUAGCGCCAACGUUCUCAACUAUGACACGCAAAACGCGAGCUCCGUUGAAUGGAGUUUAUCAUG, GGAUCUUCUCGAUCUAACAAAAAAGACAAAUCUGCCACAAAGCUUGAGAGCAUCUUCGAAUGCAGAGGCGGCAGCCUUCGGUGGCGUGAUAGCGCCAACGUUCUCAACUAUGACACGCAAAACGCGUGCUCCGUUGAAUGGAGUUUAUCAUG is higher in “polymerase ribozyme fitness (log ratio)” value: -3.81 for the first, -1.42 for the second.

First: GGAUCUUCUCGAUCUAACAAAAAAGACAAAUCUGCCACAAAGCUUGAGAGCAUCUUCGAAUGCAGAGGCGGCAGCCUUCGGUGGUGCGAUAGCGCCAACGUUCUCAACUAUGACACGCAAAACGCGUGCUCCGUUGAAUGGAGUUUAUGAUG
Second: GGAUCUUCUCGAUCUAACAAAAAAGACAAAUCUGCCACAAAGCUUGAGAGCAUCUUCGCAUGCAGAGGCGGCAGCCUUCGGUGGCGCGAUAGGGCCAACGUUCUCAACUAUGACACGCAAAACGCGUGCUCCGUUGAAUGGAGUUUAUCAUG
The “polymerase ribozyme fitness (log ratio)” value of the first is lower: -3.59 for the first, -2.98 for the second.

First: GGAUCUUCUCGAUCUAACAAAAAAGACAAAUCUGCCACAAAGCUUGAGAGCAUCUUCGCAUGCAGAGGCGGCAGCCUUCGGUGGCGCGAUAGUGCCAACGUUCUCAACUAUGACACGCAAAACGCGUGCUCCGUUGAAUGGAGUUUAUCAUG
Second: GGAUCUUCUCGAUCUAACAAAAAAGACAAAUCUGCCACAAAGCUUGAGAGCAUCUUCGAAUGCAGAGGCGGCAGCCUUCGGUGGCGCGAUAGCGCCAACGUUAUCAUCUUAGACACGAAAAACGCGUGCUCCGUUGAGUGGAGUUUAUCAUG
The “polymerase ribozyme fitness (log ratio)” value of the first is higher: -1.11 for the first, no more than -4.2 for the second.

Going from GGAUCUUCUCGAUCUAACAAAAAAGACAAAUCUGCCACAAAGCUUGAGAGCAUCUUCGCCUGCAGAGGCGGCAGCCUUCGGUGGCGGGAUAGCGCCAACGUUCUCAACUAUGACACGCAAAACGCGUGCUCCGUUGAAUGGAGUUUAUCAUG to GGAUCUUCUCGAUCUAACAAAAAAGACAAAUCUGCCACAAAGCUUGAGAGCAUCUUCGAAUGCAGAGGCGGCAGCCUUCGGUGGCGCGAUAGCGUCAACGUUGUCAACUAUGACACGCAAAACGCGUGCUCCGUUGAAUGGAGUUUAUCAUG, the “polymerase ribozyme fitness (log ratio)” value rises from no more than -4.2 to -2.47.

Compared with GGAUCUUCUCGAUCUAACAAAAAAGACAAAUCUGCCACAAAGCUUGAGAGCAUCUUCGAAUGCAGAGGCGGCAGCCUUCGGUGACGCGAUAGCGCCAACGUUCUCAACUAUGACACGCAAAACGCGUGCUCCGUUGAAUGGAGUUUAUCAUG, GGAUCUUCUCGAUCUAACAAAAAAGACAAAUCUGCCACAAAGCUUGAGAGCAUCUUCGAAUGCAGAGGCGGCAGCCUUCGGUCGCGCGUUAGCGCCAACGUUCUCAACUAUGACACGCAAAACGCGUGCUCCGUUGAAUGGAGUUUAUCAUG is higher in “polymerase ribozyme fitness (log ratio)” value: -2.24 for the first, -1.39 for the second.

First: GGAUCUUCUCGAUCUAACAAAAAAGACAAAUCUGCCACAAAGCUUGAGAGCAUCUUCGCAUGCAGAGGCGGCAGUCUUCGGUGGCGCGAUAGCGCCAACGUUCUCAACUAUGACACGCAAAACGCGUGCUCCGUUGAAUGGAGUUUAUCAUG
Second: GGAUCUUCUCGAUCUAACAAAAAAGACAAAUCUGCCACAAAGCUUGAGAGCAUCUUCGAAUGCAGAGGCGGCAGCCUUCGGUGGAGCGAUAGCGCCAACGUUCUCAACUAUGACGCGCAAAAUGCGUGCUCCGUUGAAUGGAGUUUAUCAUG
The “polymerase ribozyme fitness (log ratio)” value of the first is higher: -1.52 for the first, -2.65 for the second.

GGAUCUUCUCGAUCUAACAAAAAAGACAAAUCUGCCACAAAGCUUGAGAGCAUCUUCGAAUGCAGAGGCGGCAGCCUUCGGUUACGCGAUAGCGCCAACGUUCUCAACUAUGACACGCAAAACGCGUGCUCCGUUGAAUGGAGUUUAUCAUG and GGAUCUUCUCGAUCUAACAAAAAAGACAAAUCUGCCACAAAGCUUGAGAGCAUCUUCGAAUGCAGAGGCGGCAGCCUUCGGUGGCGCGAUAGCGCCAAGGUUCUCAACUAUGACACGCAAAACGCGUGCUCCGUUGAAUGGAGUUUAUCAUG are within 0.2 log units of each other in “polymerase ribozyme fitness (log ratio)” value: -1.23 for the first, -1.14 for the second.

For GGAUCUUCUCGAUCUAACAAAAAAGACAAAUCUGCCACAAAGCUUGAGAGCAUCUUCGCAUGCAGAGGCGGCAGCCUUCGGUGGCGCGAUAGGGCCUACGUUCUCAACUAUGACACGCAAAACGCGCGCUCCGUUGGAUGGAGUUUAUCAUG, the “polymerase ribozyme fitness (log ratio)” value was no more than -4.2.
